For orientation: EC50 means the concentration needed to bring the measured effect to its halfway point. Low values mean higher potency in that assay, high ones lower potency in that assay.

For test [1], the target named is T1, human HVEM extracellular domain fused with an Fc fragment at the C-terminus (human, UniProt Q92956 39-202).
T1 construct: extracellular domain; Bought; also called hHVEM; not shown: Fc fragment at the C-terminus
T1 sequence (looked up): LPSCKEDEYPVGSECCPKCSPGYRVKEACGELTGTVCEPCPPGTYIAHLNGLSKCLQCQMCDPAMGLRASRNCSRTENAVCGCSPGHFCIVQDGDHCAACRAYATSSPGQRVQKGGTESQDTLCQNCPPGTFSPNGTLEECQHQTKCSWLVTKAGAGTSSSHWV
Kind of test: phage ELISA. The procedure:
(§1) Individual clones from the fourth selection round were grown in 96-well deep well blocks in 100 μl of 2YT broth supplemented with 50 μg/ml ampicillin at 37° C. and 220 rpm for 5 hours. Then, 5 μl of helper phages were added to each well and incubated at 37° C. for 30 minutes. After centrifuging at 3,000 rpm for 10 minutes, the cells were resuspended and grown overnight in 150 μl/well of 2YT broth supplemented with 50 μg/ml ampicillin and 50 μg/ml kanamycin.
(§2) For the ELISA screening, 96-well ELISA plates were coated with target proteins (1 μg/ml in PBS) at 4° C. overnight and then blocked with 2% BSA for 2 hours at room temperature. The supernatant containing phage particles was added to the plates and incubated at room temperature for 1 hour. After incubation, the plates were washed five times with PBST. HRP (horseradish peroxidase) conjugated anti-M13 antibody (Sino Biological, China) was added to the wells and incubated at room temperature for 1 hour. Following another round of washing five times with PBST, 50 μl of TMB (3,3′, 5,5″-tetramethylbenzidine, #34029, ThemoFisher) was added to each well. After 5 minutes, the reaction was stopped by adding 50 μl stop solution (#C1058, Solarbio, China). The absorbance at 450 nm (OD450) was measured using a plate reader (SpectraMax M5, Molecule Devices). Wells coated with BSA were used as negative controls. Phage clones with an ELISA score ratio (target/BSA)>3 were considered positive clones.
A general note: In an ELISA, binding on a coated surface is turned into a signal by an enzyme label.

Test [2] addresses T2, mouse HVEM extracellular domain fused with an Fc fragment at the C-terminus (mouse, UniProt Q80WM9 39-206, limits assumed).
T2 construct: extracellular domain; Bought; also called mHVEM; not shown: Fc fragment at the C-terminus
T2 sequence (looked up): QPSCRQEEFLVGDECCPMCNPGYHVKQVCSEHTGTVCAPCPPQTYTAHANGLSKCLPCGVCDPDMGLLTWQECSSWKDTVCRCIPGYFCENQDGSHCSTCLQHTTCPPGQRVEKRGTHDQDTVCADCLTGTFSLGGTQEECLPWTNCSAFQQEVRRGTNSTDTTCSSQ
The test can be described thus: phage ELISA. The procedure: as §1, §2

Test [3] has as its target T3, human LTβR extracellular domain fused with an Fc fragment at the C-terminus (human, UniProt P36941 31-227).
T3 construct: extracellular domain; Bought; also called hLTβR; not shown: Fc fragment at the C-terminus
Kind of test: ELISA on coated target-Fc. The procedure:
(§3) Nunc MaxiSorp 96-well plates (Thermofisher) were coated with target proteins (1 μg/ml), and then blocked with 2% BSA-PBS buffer for one hour. Serial dilutions of the LIGHT muteins were added with a maximum concentration of 200 ng/ml. The plates were incubated for one hour, washed four times with PBST, and then incubated with mouse anti-His tag antibody (#105327, Sino Biological) for 1 hour. The plates were further incubated with HRP-conjugated goat anti-mouse secondary antibody (#SSA006, Sino Biological) before being washed three times with PBST and treated with TMB substrate (#34029, ThermoFisher). The plates were read at 450 nm on a SpectraMax M5 microplate reader (Molecule Devices). The ELISA results were analyzed using GraphPad Prism 9.0 software and the EC50s (half maximal effective concentration) were summarized in Table 5-1 and Table 5-2.

Test [4] addresses T4, mouse LTβR extracellular domain fused with an Fc fragment at the C-terminus (mouse, UniProt P50284 31-223).
T4 construct: extracellular domain; Bought; also called mLTβR; not shown: Fc fragment at the C-terminus
Kind of test: ELISA on coated target-Fc. The procedure: as §3

Test [5] has as its target T3, human LTβR extracellular domain fused …. Kind of test: phage ELISA. The protocol:
as §1, §2

The target in test [6] is T4, mouse LTβR extracellular domain fused …. The test can be described thus: phage ELISA. The procedure: as §1, §2
The target in test [7] is T1, human HVEM extracellular domain fused …. Kind of test: ELISA on coated target-Fc. The protocol: as §3

Residue numbers refer to the chain shown, from its start. In names and notes the source's numbering stands.

T4 sequence (P50284 31-223): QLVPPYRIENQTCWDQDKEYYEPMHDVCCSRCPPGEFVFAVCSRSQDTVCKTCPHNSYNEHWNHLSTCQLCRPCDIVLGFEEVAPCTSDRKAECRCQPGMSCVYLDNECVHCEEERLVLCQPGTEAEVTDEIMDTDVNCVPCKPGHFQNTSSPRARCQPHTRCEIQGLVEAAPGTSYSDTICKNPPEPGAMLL
T3 sequence (P36941 31-227): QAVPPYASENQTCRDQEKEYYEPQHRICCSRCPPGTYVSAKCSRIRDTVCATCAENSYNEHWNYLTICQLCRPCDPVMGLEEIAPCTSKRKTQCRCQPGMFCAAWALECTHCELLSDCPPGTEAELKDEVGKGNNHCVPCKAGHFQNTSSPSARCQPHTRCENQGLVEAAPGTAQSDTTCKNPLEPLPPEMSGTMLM

B1: LIGHT-9 (ligand)
chain: DGPAGSWEQLIQERRSHEVNPAAHLTGANSSLTGSGGPLLWETQLGLAFLRGLSYHDGALVVTKAGYYYIYSKVQLSGVGCPLGLASGITHGLYKRTPRYPEELELLVSQQSPCGRATSSSRVWWDSSFLGGVVHLEAGEKVVVRVSDERLVRLRDGTRSYFGAFMV
notes: Printed mutations: G150S, T161G, L220S; Soluble protein carries an N-terminal His tag
As for B1, the binding result in test [1] was “no binding”; in test [2], “binds”. Besides, the values for the EC50 in test [3] and in test [4] were 0.0282 µg/mL and 0.0224 µg/mL, respectively.

B2: LIGHT-50 (ligand)
chain: B1 chain with N29R, L47Q, S77G, G88T, H135R, K141E, S147L
notes: Printed mutations: N102R, L120Q, H208R, K214E; Soluble protein carries an N-terminal His tag
Take B2: the binding result in test [5], in test [6], in test [1] and in test [2] was “binds” throughout.

B3: LIGHT-49 (ligand)
chain: B1 chain with L32P, Q44R, S77G, G88T, S147Q
notes: Printed mutations: L105P, Q117R, L220Q; Soluble protein carries an N-terminal His tag
Consider B3, for which the binding result in test [5], in test [6], in test [1] and in test [2] was “binds” throughout.

B4: LIGHT-21 (ligand)
chain: B1 chain with S77G, S87G, G88P, S147T
notes: Printed mutations: S160G, T161P, L220T; Soluble protein carries an N-terminal His tag
On to B4, for which the binding result in test [2] was “binds”. Also, the values for the half-maximal effective concentration (EC50) in test [3], in test [4] and in test [7] were 0.0715 µg/mL, 0.134 µg/mL and 0.0422 µg/mL, respectively.

B5: LIGHT-47 (ligand)
chain: B1 chain with L53M, S77G, G88T, A117V, H135Y, S147L
notes: Printed mutations: L126M, A190V, H208Y; Soluble protein carries an N-terminal His tag
As for B5, the binding result in test [1] and in test [2] was “binds” each time. Moreover, the concentration for a half-maximal effect (EC50) came out at 0.228 µg/mL in test [3] and 0.0706 µg/mL in test [4].

B6: LIGHT-20 (ligand)
chain: B1 chain with S77G, S87A, G88T, E149D
notes: Printed mutations: S160A, L220S, E222D; Soluble protein carries an N-terminal His tag
Take B6: the binding result in test [2] and in test [4] was “binds” each time. Moreover, the results for the 50% effective concentration (EC50) in test [3] and in test [7] were 0.0521 µg/mL and 0.0496 µg/mL, respectively.

B7: LIGHT-46 (ligand)
chain: B1 chain with L53M, S77G, G88T, K141E, S147L
notes: Printed mutations: L126M, K214E; Soluble protein carries an N-terminal His tag
For the molecule B7, the binding result in test [6] and in test [2] was “binds” in each case. Besides, the EC50 came out at 0.0675 µg/mL in test [3] and 0.0978 µg/mL in test [7].

B8: LIGHT-10 (ligand)
chain: B1 chain with G88P
notes: Printed mutations: G150S, T161P, L220S; Soluble protein carries an N-terminal His tag
As to B8, the binding result in test [2] is reported as “binds”. Besides, the EC50 worked out at 0.0441 µg/mL in test [3], 0.0804 µg/mL in test [4] and 0.0467 µg/mL in test [7].

B9: LIGHT-17 (ligand)
chain: B1 chain with Q44N, S77G, G88T, H135Y, S147L
notes: Printed mutations: H208Y, Q117N; Soluble protein carries an N-terminal His tag
Turning to B9, the binding result in test [2] is given as “binds”. For the same molecule, the results for the half-maximal effective concentration (EC50) in test [3], in test [4] and in test [7] were 0.0805 µg/mL, 0.0442 µg/mL and 0.0511 µg/mL, respectively.

B10: LIGHT-48 (ligand)
chain: B1 chain with L47P, S77G, G88T, S147R
notes: Printed mutations: L120P, L220R; Soluble protein carries an N-terminal His tag
As for B10, the binding result in test [1] and in test [2] was “binds” throughout. Also, the concentration giving a half-maximal response (EC50) in test [3] was determined as 0.756 µg/mL; in test [4], 0.42 µg/mL.

B11: LIGHT-19 (ligand)
chain: B1 chain with T63S, S77G, L83P, S87G, G88T, S147M
notes: Soluble protein carries an N-terminal His tag
Regarding B11, the EC50 turned out to be 0.468 µg/mL in test [4] and 0.0681 µg/mL in test [7].

B12: LIGHT-40 (ligand)
chain: B1 chain with S77G, L83P, G88T, H135Y, S147L
notes: Printed mutations: L156P, H208Y; Soluble protein carries an N-terminal His tag
With B12, the binding result in test [6] and in test [2] was “binds” throughout. For the same molecule, the EC50 in test [3] was determined as 0.0959 µg/mL; in test [7] it was 0.0503 µg/mL.

B13: LIGHT-16 (ligand)
chain: B1 chain with Q44H, S77G, L85M, G88T, E140D, S147L
notes: Printed mutations: Q117H, L158M, E213D; Soluble protein carries an N-terminal His tag
On to B13, for which the binding result in test [2] and in test [4] was “binds” throughout. In addition, the 50% effective concentration (EC50) worked out at 0.16 µg/mL in test [3] and 0.0738 µg/mL in test [7].

B14: LIGHT-30 (ligand)
chain: B1 chain with S77G, S87R, G88N
notes: Printed mutations: S160R, T161N, L220S; Soluble protein carries an N-terminal His tag
On to B14, for which the binding result in test [2] was “binds”. Moreover, the EC50 in test [7] worked out at 0.157 µg/mL.

B15: LIGHT-51 (ligand)
chain: B1 chain with A28D, S77G, S87N, G88T
notes: Printed mutations: A101D, S160N, L220S; Soluble protein carries an N-terminal His tag
Regarding B15, the binding result in test [5], in test [6], in test [1] and in test [2] was “binds” throughout.

B16: LIGHT-18 (ligand)
chain: B1 chain with V62I, S77G, L85Q, G88T, K141E, S147L, E149K
notes: as for B11
Turning to B16, the results for the EC50 in test [3], in test [4] and in test [7] were 0.0894 µg/mL, 0.0413 µg/mL and 0.0447 µg/mL, respectively.

B17: LIGHT-44 (ligand)
chain: B1 chain with S77R, L85P, G88T
notes: Printed mutations: G150R, L158P, L220S; Soluble protein carries an N-terminal His tag
For the molecule B17, the binding result in test [5], in test [6], in test [1] and in test [2] was “binds” throughout.

B18: LIGHT-11 (ligand)
chain: B1 chain with G88T
notes: Printed mutations: G150S, L220S; Soluble protein carries an N-terminal His tag
Regarding B18, the binding result is “no binding” in test [1] and “binds” in test [2]. Further, the EC50 was determined as 0.0395 µg/mL in test [3] and 0.0233 µg/mL in test [4].

B19: LIGHT-15 (ligand)
chain: B1 chain with Q44E, S77G, G88T, E102K, K141E, S147L, L154T
notes: Printed mutations: Q117E, E175K, K214E, L227T; Soluble protein carries an N-terminal His tag
For B19, the binding result in test [2] is listed as “binds”. Moreover, the EC50 amounted to 0.0748 µg/mL in test [3], 0.139 µg/mL in test [4] and 0.0597 µg/mL in test [7].

B20: LIGHT-33 (ligand)
chain: B1 chain with S77G, G88P
notes: Printed mutations: T161P, L220S; Soluble protein carries an N-terminal His tag
As to B20, the binding result in test [6] and in test [2] was “binds” each time. The EC50 in test [3] is 0.0612 µg/mL; in test [7] it was 0.0256 µg/mL.

B21: LIGHT-32 (ligand)
chain: B1 chain with S77G, S87R, G88T
notes: Printed mutations: S160R, L220S; Soluble protein carries an N-terminal His tag
In the case of B21, the binding result in test [1] and in test [2] was “binds” throughout. Further, the half-maximal effective concentration (EC50) in test [3] turned out to be 0.247 µg/mL; in test [4] it was 0.0632 µg/mL.

B22: LIGHT-14 (ligand)
chain: B1 chain with T43S, S77G, L85Q, G88T, L93M, S147L
notes: as for B11
In the case of B22, the values for the EC50 in test [4] and in test [7] were 0.0249 µg/mL and 0.03 µg/mL, respectively.

B23: LIGHT-41 (ligand)
chain: B1 chain with S77R, S87G, G88T
notes: Printed mutations: G150R, S160G, L220S; Soluble protein carries an N-terminal His tag
As to B23, in test [2], the binding result was “binds”. The concentration giving a half-maximal response (EC50) amounted to 0.108 µg/mL in test [3] and 0.0311 µg/mL in test [4].

B24: LIGHT-45 (ligand)
chain: B1 chain with S87P, G88S, R150H
notes: Printed mutations: G150S, S160P, T161S, L220S, R223H; Soluble protein carries an N-terminal His tag
As to B24, the binding result in test [2] is “binds”. The figures for the concentration giving a half-maximal response (EC50) in test [3] and in test [4] were 0.0362 µg/mL and 0.0264 µg/mL, respectively.

These data come from patent US20250361288A1 (Gilead, published 2025).
